Among the data in patent EP2170953B1 are O.D. (mean) values, retold here.

The assay deals with Aβ1-28 peptide, biotinylated (Anaspec). Kind of assay: ELISA on biotinylated peptide, Ab 10 µg/ml, mean of 2, background subtracted. To be noted: remark: other sources report otherwise.
Sequence of Aβ1-28 peptide, biotinylated (Anaspec) (chain, as listed by the source): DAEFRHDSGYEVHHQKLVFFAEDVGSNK

B1: ACI-12-Ab-11 (antibody, V domains shown)
VL: QAVVTQESALTTSPGGTVILTCRSSTGAVTTSNYANWVQEKPDHLFTGLIGGTSNRAPGVPVRFSGSLIGDKAALTITGAQTEDDAMYFCALWYSTHYVFGGGTKVTVL
VH: QVQLQQSDAELVKPGASVKISCKVSGYTFTDHTIHWMKQRPEQGLEWIGYIYPRDGSTKYNEKFKGKATLTADKSSSTAYMQLNSLTSEDSAVYFCARDYGYAFDYWGQGTTLTVSS
modifications: here or on the partner: biotinylated (position not given)
The molecule B1 showed an O.D. (mean) of -0.02 O.D.
